Results taken from patent US20230040008A1, “ANTI-HER2 POLYPEPTIDES DERIVATIVES AS NEW DIAGNOSTIC MOLECULAR PROBES” (BRACCO IMAGING S.P.A., priority 2019, published 2023).
Entries after “also recorded” stand apart in the source; their conditions may differ.

Columns and labels:
[1] = biological target: T1, human HER2 (hHER2) recombinant protein (Homo sapiens, UniProt P04626); assay: Biolayer interferometry (BLI) affinity assay on protein A biosensors coated with hHER2; details: 1:1 binding fit model
T1 construct: purchased R&D Systems
Description: (§1) Affinity experiments were performed by Biolayer Interferometry (BLI) assay, using an Octet System and Protein A biosensors (ForteBio). Recombinant human protein hHER2 was purchased from R&D Systems (Minneapolis, US).
(§2) The affinity of the polypeptides of the invention for the target HER2 was measured by Biolayer interferometry assay. To this purpose, the protein A biosensors (ForteBio) were coated with human HER2 (hHER2) recombinant protein. After a brief wash with PBS, the coated sensor was assayed versus the affitin Aff02-0 at different concentrations (i.e. […], 500, 250, 125, 62.5, 31.3, 15.6 and 0 nM).
(§3) A curve fitting analysis was then performed in order to determine the dissociation equilibrium constant. The sensorgrams were analyzed using the Octet Data Analysis software 8.2 (ForteBio) with a 1:1 binding fit model to determine the dissociation equilibrium constant (Kd) and the related association and dissociation rate constants (kon and koff) with R^2 value assessing the fitting quality.
as §2, with “IRDye800CW-Aff02 conjugate to” for “polypeptides of the invention for”, “IRDye800CW-Aff02 conjugate” for “affitin Aff02-0”, “1000, 100, 10, 1, 0.1 ng/mL).” for “500, 250, 125, 62.5, 31.3, 15.6 and 0 nM).”
A steady state analysis was performed in order to determine the dissociation equilibrium constant. The sensorgrams were analyzed using the Octet Data Analysis software 8.2 (ForteBio) with a 1:1 binding fit model to determine the dissociation equilibrium constant (Kd).

[2] = biological target: T2, recombinant human protein hHER2 (R&D Systems) (human, UniProt P04626 23-652); assay: BLI (Octet), hHER2 on Protein A biosensors, 1:1 fit
T2 construct: also called human HER2 (hHER2) recombinant protein
Description: as §1, §2
as §3, with “(kₒₙ” for “(kon”, “R²” for “R^2”

[3] = system: SK-BR-3 breast adenocarcinoma cell line (overexpressing HER2 receptor); assay: Cell internalization assay (viability with Pe38 fusion), HER2 overexpressing cells; type: cell-based
Description: (§4) The cells internalization of Aff01 was evaluated using a dedicated cell-based assay. Briefly, Aff01 was tagged with SEQ ID NO: 3 (i.e. forming sequence Aff02-0) and then fused to a truncated portion of Pseudomonas exotoxin A, wherein the cell internalization domain of the toxin is removed, thus forming a final peptide with the sequence as set out in SEQ ID NO: 5. Such truncated form (Pe38) needs to be internalized by means of the Aff01 to keep its cytotoxic activity.
(§5) To test internalization, then, the viability of the breast adenocarcinoma cell line SK-BR-3 (overexpressing HER2 receptor) and of the breast cancer cell line MCF-7 (low expressing HER2 receptor) was measured at different nanofitin concentrations.

HER2 = HER2 (Homo sapiens, UniProt P04626); assay: ELISA monitoring of anti-HER2 affitin selection; type: binding; details: end of selection process
Source text: (§6) To selectively target HER2 receptor, a library of affitins has been enriched against the target by several consecutive rounds of screening (up to 6 rounds). The enrichment of anti-HER2 affitins has been followed after any selection round by ELISA assay monitoring, also controlling the condition of negligible binding to human (HSA), murine (MSA) and bovine (BSA) serum albumin.

[4] = system: MCF-7 breast cancer cell line (low expressing HER2 receptor); assay: Cell internalization assay (viability with Pe38 fusion), HER2 low expressing cells; type: cell-based; details: Aff01 tested as fusion Aff02-0/Pe38 (SEQ ID NO: 5); different nanofitin concentrations
Description: as §4, §5

[5] = system: human (HSA), murine (MSA) and bovine (BSA) serum albumin; assay: ELISA control of binding to serum albumins during selection
Source text: as §6

[6] = biological target: T2, recombinant human protein hHER2 (R&D …); assay: BLI (Octet), hHER2 on Protein A biosensors, steady state analysis
[7] = set-up: species or system Balb/c nu/nu mice; details: mouse, in vivo
Description: In vivo imaging experiments were performed using the IVIS Spectrum In Vivo Imaging System (Perkin Elmer Inc.), equipped with 10 narrow band excitation filters (30 nm bandwidth) and 18 narrow band emission filters (20 nm bandwidth) spanning 430-850 nm.
In vivo optical imaging biodistribution of IRDye800CW-Aff02 was evaluated in healthy mice. Optical Imaging experiments on three healthy mice were performed using an IVIS Spectrum system after administration of IRDye800CW-Aff02 at a dose of 10 nmol/mouse, in an administration volume of 0.2 mL. The experiments were carried out at 15 min, 30 min, 1 h, 2 h, 4 h, 6 h, 24 h and 48 hours after intravenous administration of the conjugate.
Regions of interest (ROIs) were drawn on a reference background healthy region (hind leg's muscle) of the mouse and on whole body for each fluorescence image at every time point to evaluate signal intensity in the tissues, expressed as Average Radiant Efficiency (see FIG. 5, reporting the fluorescence signal curves of IRDye800CW-Aff02 administered 10 nmol/mouse in Balb/c nu/nu mice).
Pharmacokinetic analysis of the signal was performed to evaluate the half time of the tested product by using a mono-exponential decay model and the results are reported in Table 3:
After sacrifice, several organs were collected for the measure of residual fluorescence (after 48h). The measurements of fluorescence signal intensity have been obtained from the analysis of each organ selecting an area of interest (ROIs) at the center of each sample. The analyzed organs were: kidney, lung, spleen, liver, muscle and heart.

HER2/Fc chimeric protein = biological target: T3, HER2/Fc chimeric protein (Homo sapiens, UniProt P04626); assay: Competitive ELISA of Aff02 versus trastuzumab-biotin or pertuzumab-biotin; type: binding
T3 construct: Fc (immunoglobulin Fc fusion partner)
Source text: A competitive ELISA assay has been developed in order to investigate if the epitope of the HER2/Neu antigen recognized by Aff02 polypeptide was distinct from the epitope recognized by the humanized monoclonal antibodies trastuzumab and pertuzumab, actually used in therapeutic treatments of HER2-positive tumors.
The first experiment, aimed at evaluating the quality of the assay, was a competitive ELISA assay carried out between trastuzumab and trastuzumab-biotin. Briefly, a Medisorp transparent plastic plate (96 wells, Thermo Scientific), was coated (64 wells) with 2.5 μg/mL of HER2/Fc chimeric protein in TBS pH 7.4 (1 h, RT). The wells were blocked with 0.5% BSA in TBS (1 h, RT).
At the end of the incubation, the plate was washed three times with 250 μL of TBS-T and incubated with Streptavidin-HRP 1:10000 in TBS-T (1 h at RT). The plate was washed again 3 times with TBS-T and developed 5 min with TMB reagent (100 μL). The reaction was blocked with 50 μL of sulfuric acid 2 M and read at 450 nm.
As positive control, the same experiment was repeated using an antibody anti RSGH TAG-HRP (1:4000) in place of streptavidin-HRP, in order to evaluate the curve affinity of Aff02 to HER2 receptor.
Briefly, a Medisorp transparent plastic plate (96 wells, Thermo Scientific) was coated (64 wells) with 2.5 μg/mL of Her2/Fc chimeric protein in TBS pH 7.4 (1 h, RT). The wells was blocked with 0.5% BSA in TBS (1 h, RT). […] At the end of the incubation, the plate was washed three times with 300 μL of TBS-T and incubated with Streptavidin-HRP 1:10000 or anti-RSGH TAG-HRP 1:4000 in TBS-T (1 h at RT). The plate was washed again 3 times with TBS-T and developed 5 min with TMB reagent (100 μL). The reaction was blocked with 50 μL of sulfuric acid 2 M and read at 450 nm.

B1: affitin Aff02-0 (designed binder)
chain: MRGSHHHHHHGSVKVKFWGAGVEKEVDTSKITWVTRSGKYVIFTYDDNGKAGPGRVPEKDAPKELLDMLARAEREK
notes: also called unlabeled Aff02-0 affitin
In the case of B1, the koff ([1]; unlabeled affitin) is reported as 8.3 ± 0.1 × 10^−3 s^−1, the kon ([1]; unlabeled affitin) is reported as 4.5 ± 0.1 × 10^5 M^−1s^−1 and the Kd [2] is reported as 18 nM. It also gave a koff [2] of 0.0083 s⁻¹ and a kon [2] of 450000 M⁻¹ s⁻¹.

B2: Aff01: 64 aac anti-HER2 affitin, SEQ ID NO: 1 (protein)
chain: VKVKFWGAGVEKEVDTSKITWVTRSGKYVIFTYDDNGKAGPGRVPEKDAPKELLDMLARAEREK
In the case of B2, the “cytotoxic induction (cell viability) on SK-BR-3 cells” value ([3]; Aff01 tested as fusion Aff02-0/Pe38 (SEQ ID NO: 5), different nanofitin concentrations) is reported as “dose-dependent cytotoxic induction”, the “cell internalization through HER2 receptor” value ([3]; concluded from cell death induction by Pe38 fusion) is reported as “effective transport of Pe38 through HER2 receptor” and the “affinity to HER2” value (HER2) is reported as “nanomolar affinity”. For the same molecule, the “alteration of cell viability on MCF-7 cells” value [4] was “no significant alterations” and the binding to albumin [5] was “absence of binding to albumin”.

B3: IRDye800CW-Aff02 conjugate (designed binder)
chain: MRGSHHHHHHGSVKVKFWGAGVEKEVDTSKITWVTRSGKYVIFTYDDNGKAGPGRVPEKDAPKELLDMLARAEREKC
modifications: chain 1 pos 77: Cys carrying IRDye800CW through a maleimide thioether, written C
notes: Aff02 was reduced with TCEP, then coupled to IRDye800CW-maleimide at the C-terminal Cys
Molecule B3 has a Kd [6] of 1.6 nM.

B4: IRDye800CW-Aff02: fluorophore IRDye800CW-maleimide conjugated to the C-terminal cysteine of affitin Aff02 (conjugate)
chain: B3 chain
modifications: cyclised or stapled
With B4 the clearance pathway [7] was “preferably cleared by the renal pathway”, the “Half life in muscle” value ([7]; iv) was 2.122 h and the “Half life in whole body” value ([7]; iv) was 2.196 h. The “average half-life (muscle and whole body)” value ([7]; iv) was 2.16 h and the “Kd (dissociation equilibrium constant) of the complex IRDye800CW-Aff02 conjugate/hHER2” value ([1]; steady state analysis) was “in the nanomolar range”.

B5: Aff02: 77 aac variant of SEQ ID NO: 1 with a Cys at the C-terminus and a hexahistidine tag at the N-terminus (protein)
chain: B3 chain
For B5, the “competition with trastuzumab and pertuzumab for binding to HER2, assay c / overall” value (HER2/Fc chimeric protein; antibody-biotin curves in presence or absence of Aff02, FIGS. 4a, 4b) was “no competition; also recorded: do not compete for binding to HER2”, the “binding to HER2 receptor (ELISA)” value (HER2/Fc chimeric protein; assay a, FIG. 2) was “binders for HER2 receptor” and the “Aff02 response (anti RSGH-Tag Ab detection) with increasing trastuzumab-biotin or pertuzumab-biotin, assay b” value (HER2/Fc chimeric protein; fixed 10 μg/mL Aff02, variable antibody-biotin, FIGS. 3a, 3b) was “negligible response decrease”. For the same molecule, the “epitope competition, assay a” value (HER2/Fc chimeric protein; variable Aff02 (0.01-10000 ng/mL) with 0.2 μg/mL trastuzumab-biotin or pertuzumab-biotin, FIG. 2) was “epitopes recognized by trastuzumab and pertuzumab are different from that recognized by Aff02”.
